The source of these data is the RNAGym collection of RNA variant scans (doi:10.1073/pnas.2313332121).

B1: TPR t1 (parent)
chain: GACCAAUCUGCCCUCAGAGCUCGAGAACAUCUUCGGAUGCAGAGGAGGCAGGCUUCGGUGGCGCGAUAGCGCCAACGUCCUCAACCUCCAAUGCAUCCCACCACAUGAUGAUGCCUGAAGAGCCUUGGUUUUUUG

In this series the parent is B1. Description: polymerase ribozyme fitness, log enrichment relative to wild type (log ratio); higher = more active; in vitro selection for triplet polymerase activity. Summed up: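 Streptavidin-bead capture of gel-excised extended constructs, followed by RT-PCR, closed a single triplicate in vitro selection round. That round began by annealing PCR-built, transcribed mutant libraries of each subunit of a heterodimeric triplet polymerase ribozyme with a biotinylated primer, the partner subunit and triplets, then incubating them frozen at −7 °C. After Illumina sequencing of inputs and outputs, genotypes needed ≥10 input reads and ≥1 read per output. Fitness is the base-2 logarithm of genotype enrichment over wild-type enrichment, using inverse-variance-weighted replicate averages.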
Consider GACCAAUCUGCCCUCAGAGCUCGAGAAGAUCUUCGGAUGCAGAGGAGGCAGGCUUCGGUGACGCGAUAGCGCCAACGUCCUCAACCUCCAAUGCAUCCCACCACAUGAUGAUGCCUGAAGAGCCUUGGUUUUUUG, for which the “polymerase ribozyme fitness (log ratio)” value is -2.51.

For the variant GACCAAUCUGCCCUCAGAGCUCGAGAACAUCUUCGGAUGCAGAGGAGACAGGCUUCGGUGGCACGAUAGCGCCAACGUCCUCAACCUCCAAUGCAUCCCACCACAUGAUGAUGCCCGAAGAACCUUGGUUUUUUG, the “polymerase ribozyme fitness (log ratio)” value was -5.7.

Turning to GACCAAUCUGCCCUCAGAGCGCGAGAUCAUCUUCGGAUGCAGAGGAGGCAGGCUUCGGUUGCGCGAUAGCGCCAACGUCAUCAACCUCCAAUGCAUCCCACCACAUGAUGAUGCCUGAAGAGGCUUGGUUUUUUG, the “polymerase ribozyme fitness (log ratio)” value is -6.74.

Turning to GACCAAUCUGGCCUCAGAGCUCGAGAACAUCUUCGGAUGCAGAAGAGGCAGGCUUCGGUAGCGCGAUAGCGCCAACGUCCUCAACCUCCAAUGCAUCCCACCACAUGAUGAUGCCUGAAGUGCCUUGGUUUUUUG, the “polymerase ribozyme fitness (log ratio)” value was found to be 1.14.

GACCAAUCUGCCCGCAGAGCUCGAGAACAUCUUCGGAUGCAGAGGAGGCAGGCUUCGGUGGCGCGAUAGCACCAACGUCCUCAACCUCCAAUGCAUCCCACCACAUGAUGAUGCCUGAAGAGCCUUGGUUUUUUG: the “polymerase ribozyme fitness (log ratio)” value was -1.59.

Take GACCAAUCUGCCCUCAGAGCUCGAGAACAUAUUCGCAUGCAGAGGAGGCAGGCUUCGGUCGCGCGAUAGCGGCAACGUCCUCAACCUCCAAUGCAUCAAACCACAUGAUGAUGCCUGAAGAGCUUUGUUUUUUUG: the “polymerase ribozyme fitness (log ratio)” value was -7.42.

Take GACCAAUCUGCCCUCAGAGCUCGAGAACAUCUUCGGAUGGAGAGGAGGCAGGCUUUGGUGGCGCGAUAGCGCCAACGUCCUCAACCUCCAAUGCAUCCCACCACAUGAUGAUGCCUGAAGAGCCUUGCUUUUUUG: the “polymerase ribozyme fitness (log ratio)” value is -3.4.

Turning to GACCAAUCUGCCCUCAGAGCUCGAGAACAUCUUCGGAUGCAGAGGAGGCAGGCUUCGGUGGCGCGAUAGCGCCAACGUCCUAAACCUCCAAUGUAUCUCACCACACGAUGAUGCCUGAAGAGCCUUGGUUUUUUG, the “polymerase ribozyme fitness (log ratio)” value is -2.21.

Take GACCAAUCUGCCCUCAGAGCUCGAGAACAUCUUCGGAUGCAGAGGAGGAAGGCUUCGGUGGCGCGAUAGCGCCAACAUCCUCAACCUCCAAUGCAUCCCACCACACGAUGAUGACUGAAGAGCCUUGGUUUUUUG: the “polymerase ribozyme fitness (log ratio)” value is -2.9.

Turning to GACCAAUCUGCCCUCAGAGCUCGAGAACAUCUUCGGAUGCAGAGGAGGCAGGCUUCGGUGGCGCGAUAGCGCCAACGGCCUCAACUUCCAAUGCAUCCCACCACAUGAUGAUGCCUGAAGAGCCUUGGUUUUAUG, the “polymerase ribozyme fitness (log ratio)” value was -0.63.

Consider GACUAAUCUGCCCACAGAGCUCGAGAACAUCUUCGGAUGCAGAGGAGGCAGGCUUCGGUGGCGCGAUAACGCCAACGUCCUCAACCUCCAAUGCAUCCCAUCACAUGAUGAUGCCUGAAGAGCCUUGGUUUUUUG, for which the “polymerase ribozyme fitness (log ratio)” value is -5.32.

For GACCAAUCUGUCCUCAGAGCUCGAGAACAUCUUCGGAUGCAGAGGAGGCAGGAUUCGGUGGCGCGAUAGCGCCAACGUCCUCAACCUCCAAUGCAUUCCACCACAUGAUGAUGCCUGAAGAGCCUUGGUUUUUUG, the “polymerase ribozyme fitness (log ratio)” value was -1.37.

Consider GACCAAUCUGCCCUCAGAGCUGGAGAACAUCUUCGGAUGCAGAGGAGGCAGGCUUCGGUGGCGCGAUAGCGCCAACGUCCUCAACUUCCAAUGCAUCCCACCACAUGAUGAUGCCUGAAGAGACUUGGUUUUUUG, for which the “polymerase ribozyme fitness (log ratio)” value was -3.08.

Regarding GACCAAUCUGCCCUCAGAGCUCGAGAACAUCUUCGGAUGCAGAGAAGGGAGGCUUCGGUUGCGCGAUAGCGCCAACGUCCUCAACCUCCAAUGCAUCCCACCACACGAUGAAGCCUGAAGAGCCUUGGUUUUUUG, the “polymerase ribozyme fitness (log ratio)” value is -0.821.

Regarding GACCAAUCUGCCCUCAGAGCUCGAGAACAUCUUCGGAUGCAGAGGAGGCAGGCUUCGGUGGCGCGAUAGCGCCAACGGCCUCAACCUCCAAUGCAUCCCACCACAUGAUGAUGCCUGAAGAGUCUUGGUUUUUUG, the “polymerase ribozyme fitness (log ratio)” value stood at 0.876.

With GACCAAUCUGCCCUCAGAACUCGAGAACAUCUUCGGAUGCAGAGGAGGCAGGCUUCGGUGGCGCGAUAGCGCCAACGUCCUCAACCUACAAUGCCUCCCACCACAUGAUGAUGGCUGAAGAGCCUUGGUUUUUUG, the “polymerase ribozyme fitness (log ratio)” value was -4.8.

With GACCAAUCUGCCCUAAGAGCUCGAGAACAUCUUCGGAUGCAGAGGAGGCAGGCUUCGGUGGCGCGAUAGCGCCAAUGUCCUCUACAUCCAAUGCAUCCCACCACAUGAUGAUGCCUGAAGAGCCUUGGUUUUUUG, the “polymerase ribozyme fitness (log ratio)” value was -3.37.

As to GACCAAUCUGCCCUCAGAGCUCGAGAACAUCUUCGGAUGCAGAGGAGGCAGGCUUCGGUGGCGCGAUAGCGCCAACCUCCUCAACCUCCAAUGCAUCCCACCAAAUGAUGAUGCCGGAAGAACCUUGGUUUUUUG, the “polymerase ribozyme fitness (log ratio)” value was -5.01.

For GACCAAUCUGCCUUCAGAGCUCGAGAACAUCUUCGGAUGCAGAGGAGGCAGGCUUCGGUGGCGCGAUAGCGCCAACGUCCUCAACCUCCAAUGCAUCCCAUCACAUGAUGAUGCCUGAAGAGCCUUGGUUUUUUG, the “polymerase ribozyme fitness (log ratio)” value is -0.0534.

On to GACCAAUCUGCCCUCAGAGCUCGAGAACAUCUUCGGAUGCAGAGGAGGCAGGCUUCGGUGGCGCGAUAGCGCCUACGUCCUCAACCUCCAAUGCAUCCCACCACAUGAUGAUGCCUGAAGAGCCUUGGUGUUUUG, for which the “polymerase ribozyme fitness (log ratio)” value was -0.154.

Regarding GACCAAUCUGCCCUCAGAGUUCGAGAACAUCUUCGGAUGCAGAGGAGGCAGGCAUCGGUGGCGCGAUAGCGCGAACGUCCUCAACCUCCAAUGCAUCCCACCACAUGAUGAUGCCUGAAGAGCCUUGGUUUUAUG, the “polymerase ribozyme fitness (log ratio)” value was -1.99.

On to GACCUAUCUGCCCUCAGAGCUCGAGAACAUCUUCGGAUGCAGAGGAGGCAGGCUUCGGUGGAGCGAUAGCGCCAACGUCCUCAACCUCCAAUGCAUCCCACCACAUGAUGAUGCCUGAAGAGCCUUGGUUUUUUG, for which the “polymerase ribozyme fitness (log ratio)” value was -0.777.

For GACCAAUCUGCCCUCAGAGCUCGAGAACAUCUUCGGAUGCAGAGGAGGCAGGCUUCGGUGUCGCGAUAGCGCCAACGUCCUCAACCUCCAAUGCAUCCCACCACAUGAUGAUGCCUUAAGAGCCUUGGUUUUUUG, the “polymerase ribozyme fitness (log ratio)” value was -1.34.

GACCAAUAUGCCCUCAGAGCUCGAGAACAUCUUCGGAUGCAGAGGAGGCAGACUUCGGUGGCGCGAUAGCGCCAACGUCCUCAACCUCCAAUGCAUCACACCACAUGAUGAUGCCUGAAGAGCCUUGGUUUUUUG: the “polymerase ribozyme fitness (log ratio)” value was -4.9.

Regarding GACCAAUCUGCCCUCAGAGCUCGAGAACAUCUUCGGAUGCAGAGGAGGCAUGCUUAGGUGGCCCGAUAGCGCCAACGUCCUCAACCUCCAAUGCAUCUUACCACAUGAUGAUGCCUGAAGAGCAUUGGUUGUUUG, the “polymerase ribozyme fitness (log ratio)” value is -7.53.

GACUAAUCUGUCCUCAGAGCUCGAGAACAUCUUCGGAUGCAGAGGAGGCAGGCUUCGGUGGCGCGAUAGCGCCAACGUCCUCAACCUCCAAUGCAUCCCACCAUAUGAUGAUGCAUGAAGAGCCUUGGUUUUUUG: the “polymerase ribozyme fitness (log ratio)” value is -2.94.

For the variant GACCAAUCUGCCCUCAGAGCUCGAGAACAUCUUCGGAUGCAGAGGAGGCAAGCUUCGGUGGCGCGAUAGCGCCAACGUCCUCAACCUCCAAUGCAUCCCACCACAUGAUGAUGCCUGAAGAGCCUUGAUUUUUUG, the “polymerase ribozyme fitness (log ratio)” value was -5.75.

As for GACCAAUCUGCCCUCAGAGCUCGAGAACAUCUUCGGAUGCAGAGCAGGCAGGGUUCGGUGGCGCGAUAGCGCCAACGUCCACAACCUCCACUGCAUCCCACCACAUGAUGAUGCCUGAAGAGCCUUGGUUUUUUG, the “polymerase ribozyme fitness (log ratio)” value is -4.15.

In the case of GACCAAUCUGCCCUCAGAGCUCGAGAACAUCUUCGGAUGCAGAGGAGGCAGGCUUCGGUGGCGCGAUAGCGCCAACGUCCUCAACCUCCAAUGCAUCCCAACACAUGAUGAUGCCUGAAGAGCCUUGGUUCUUUG, the “polymerase ribozyme fitness (log ratio)” value was -0.88.

In the case of GACCAAUCUGCCCUCACAGCUCGAGAACAUCUUCGGAUGCAGAGGAGGCAGGCUUCGGUGGCGCGAUAGCGCCAACGUCCUCAACCUCCAAUGCAUCCCACCACAUGAUGAUGCCUGAAAAGCCUUGGUUUUUUG, the “polymerase ribozyme fitness (log ratio)” value is -3.31.

In the case of GACCAAUCUGCCCUCAGAGCUCGAGAACAUCUUCGGAUACAGAGGAGGCAGGCUUCGGUGACGCGAUAGCGCCAACGUCCUCAACCUCAAAUGCAUCCCACCACAUGAUGAUGCCUGAACAGCCUUGGUUUUUUG, the “polymerase ribozyme fitness (log ratio)” value is -1.19.

For GACCAAUCUGCCCUCAGAGCUCGAGAACAUCUUCGGAUGCAGAGGGGGCAGGCUUCGGUGGCGCGAUAGCGCCAACGUCCUCAACCUCCCAUGCAUCCUACCACACGAUGAUGCCUGAAGAGCCUUGGUUUUUUG, the “polymerase ribozyme fitness (log ratio)” value is -4.81.

GACCAAUCUGACCUCAGAGCUCGAGAACACCUUCGGAUGCAGAGGAGGCAGGCUUCGGUGGCGCGAUAGCGCCAACGUCCUCAACCUCCAAUGCAUCCCACCACAUGAUGAUGCCUGAAGAGCCUUGGUUUUUUG: the “polymerase ribozyme fitness (log ratio)” value is -5.07.

As to GACCAAUCUGCCCUCAGAGCUCGAGAACAUCUUCGGAUGCAGAGGAGGCAGGCUUCGGUGGCGCGAUAGCGCCAACGUACUCAACCUCCAAUGCAUCCCACCACAUGAUGAUGCAUGAAGAGCCUUGGUUUUUUG, the “polymerase ribozyme fitness (log ratio)” value is -2.1.

Turning to GACCAAUCUGCCCUCAGAGCUCGAGAACAUCUUCGGAUGCAGAGGAGGCAGGCGUGGGUGGCGCGAUAGCGACAACGUCCUCAACCUCCAAUACAUCCCACCACAUGAUGAUGCCUGAAGAGCAAUGGUUUUUUG, the “polymerase ribozyme fitness (log ratio)” value was -2.75.

Regarding GACCAAUCUGCCCUCAGAGCUCGAGAACAUCUUCGGAUGCAGAGGAGGCAGGCUUCGGUGUCGCGAUAGCGCCAACGUCCUCAACCUUCAAUGCAUCCCACCACAUGAUGAUGCCUGAAGAGCCUUGGUUUUUUG, the “polymerase ribozyme fitness (log ratio)” value was -0.259.

Turning to GACCAAUCUGCCCUCAGAGCUCGAGAACAUCUUCGGAUGCAGAGGAGGCAGGCUUUGGUGGCGCGAUAGCGCCAACGUCCUCAACCUCCAAUGCAUCCCACCACAUGAUGAUGCCUGAAGAGCCUUCGUUUUUUG, the “polymerase ribozyme fitness (log ratio)” value is -1.62.

As to GCCCAAUCUGCCCUCAGAGCUCGAGAACAUCUUCGGAUGCAGAGGAGGCAGGCUUCGGUGGCGCGUUAGCGCCAACGUCCUCAACCUCCAAUGCAUCCCACCACAUGAUGAUGCCUGAAGAGCCUUGGUUUUUUG, the “polymerase ribozyme fitness (log ratio)” value is -2.86.

Consider GACCAAUCUGCCCUCAGAGCUCGAGAACAUCUUCGGAUGCAGAGGAGGCAGGCUUCGGUGGCGCGAUAGCGCCAACGUCCUCAACCUCCAAUGCAUCCCACCACAUGAUGAUGCCUGAAGCUCCUUGGUUUUUUG, for which the “polymerase ribozyme fitness (log ratio)” value amounted to 0.743.

On to GACCAAUCUGCCCUCAGAGCUCGAGAUCAUCUUCGGAUGCAGAGGAGGAAGGCUUUGGUGGUGCGAUAGCGCCAACGUCCUCAACCGCCAAUGCAUCCCACCACAUGAUGAUCCCUGAAGAGCCUUGGUUUUUUG, for which the “polymerase ribozyme fitness (log ratio)” value was -6.58.

For the variant GACCAAUCUGCCCUCAGAGCUCGAGAACAUCUUCGGAUGCAGAGGAUGCAGACUUCGGUGGCGCGAUAGCGCCAACGUCCUCCACCUCCAAUGCAUCCCACCACAUGAUGAUGCCUGAAGAGCCUUGGUUUUUUG, the “polymerase ribozyme fitness (log ratio)” value was -2.36.

Regarding GACCAAUCUGCCCUCAGAGCUCGAGAACAUCUUCGGAUGCAGAGGAGGCAGGUUUCGGUGGCGCGAUAGCGCCAACGUCCUCAACCUCCAAUGCAUCCCACCACAUUAUGAUGCCUGAAGAGCCUUGGUUUUUUG, the “polymerase ribozyme fitness (log ratio)” value was -4.06.
